Sequences and labels used below:
B1: 369_D02 (antibody, V domains shown)
VH: EVQLLESGGGLVQPGGSLRLSCAASGFTFSDYSMNWVRQAPGKGLEWVSNINYNSGYTGYADSVKGRFTISRDNSKNTLYLQMNSLRAEDTAVYYCARSANWHDTALDYWGQGTLVTVSS
VL: DIQMTQSPSSLSASVGDRVTITCRASQSILSYLNWYQQKPGKAPKLVIYAVTSRASGVPSRFSGSGSGTDFTLTISSLQPEDFATYYCQQSYDTPLTFGGGTKVEIK
B2: 366_B12 (antibody, V domains shown)
VH: EVQLLESGGGLVQPGGSLRLSCAASGFTFSSYSMNWVRQAPGKGLEWVAGINYNSGYKGYADSVKGRFTISRDNSKNTLYLQMNSLRAEDTAVYYCARSANWHDTALDYWGQGTLVTVSS
VL: DIQMTQSPSSLSASVGDRVTITCRASQSILTYVNWYQQKPGKAPKLLIYAATSRASGVPSRFSGSGSGTDFTLTISSLQPEDFATYYCQQSYDNPLTFGGGTKVEIK
B3: 374_C06 (antibody, V domains shown)
VH: EVQLLESGGGLVQPGGSLRLSCAASGFTFDDYSMNWVRQAPGKGLEWVSSINYNSGYKGYADSVKGRFTISRDNSKNTLYLQMNSLRAEDTAVYYCARSANWHDTALDYWGQGTLVTVSS
VL: DIQMTQSPSSLSASVGDRVTITCRASQSILTYVNWYQQKPGKAPKLLIYAATSRASGVPSRFSGSGSGTDFTLTISSLQPEDFATYYCQQSYNSPLTFGGGTKVEIK
B4: 370_C03 (antibody, V domains shown)
VH: EVQLLESGGGLVQPGGSLRLSCAASGFTFSSYGMNWVRQAPGKGLEWVAGINYNGGYKGYADSVKGRFTISRDNSKNTLYLQMNSLRAEDTAVYYCARSANWHDTALDYWGQGTLVTVSS
VL: DIQMTQSPSSLSASVGDRVTITCRASQSILTYLNWYQQKPGKAPKLLIYYVTNRQSGVPSRFSGSGSGTDFTLTISSLQPEDFATYYCQQSYSSPLTFGGGTKVEIK
B5: 374_C10 (antibody, V domains shown)
VH: EVQLLESGGGLVQPGGSLRLSCAASGFTFSSYSMNWVRQAPGKGLEWVSSINYNGGYKGYADSVKGRFTISRDNSKNTLYLQMNSLRAEDTAVYYCARGATWHDTHLDYWGQGTLVTVSS
VL: DIQMTQSPSSLSASVGDRVTITCRASQSIVTYLNWYQQKPGKAPKLLIYAATSLASGVPSRFSGSGSGTDFTLTISSLQPEDFATYYCQQSYNTPLTFGGGTKVEIK
B6: 372_F08 (antibody, V domains shown)
VH: EVQLLESGGGLVQPGGSLRLSCAASGFTFSDYSMNWVRQAPGKGLEWVSNINYNSGYTGYADSVKGRFTISRDNSKNTLYLQMNSLRAEDTAVYYCARSANWHDTALDYWGQGTLVTVSS
VL: DIQMTQSPSSLSASVGDRVTITCRASQSILTYVNWYQQKPGKAPKLVIYAATSRASGVPSRFSGSGSGTDFTLTISSLQPEDFATYYCQQSYDTPLTFGGGTKVEIK
B7: 374_D08 (antibody, V domains shown)
VH: EVQLLESGGGLVQPGGSLRLSCAASGFTFDSYGMNWVRQAPGKGLEWVSGINYNSGYTGYADSVKGRFTISRDNSKNTLYLQMNSLRAEDTAVYYCARSANWHDTHLDYWGQGTLVTVSS
VL: DIQMTQSPSSLSASVGDRVTITCRASQSILTYLNWYQQKPGKAPKLLIYAATSRHSGVPSRFSGSGSGTDFTLTISSLQPEDFATYYCQQSYESPLTFGGGTKVEIK
B8: 365_A12 (antibody, V domains shown)
VH: EVQLLESGGGLVQPGGSLRLSCAASGFTFSSYGMHWVRQAPGKGLEWVAGINYNGGYTSYADSVKGRFTISRDNSKNTLYLQMNSLRAEDTAVYYCAKSANWHDTHLDYWGQGTLVTVSS
VL: DIQMTQSPSSLSASVGDRVTITCRASQSILTYVNWYQQKPGKAPKLLIYAATSRHSGVPSRFSGSGSGTDFTLTISSLQPEDFATYYCQQSYENPLTFGGGTKVEIK
B9: 374_G05 (antibody, V domains shown)
VH: EVQLLESGGGLVQPGGSLRLSCAASGFTFSSYSMNWVRQAPGKGLEWVSNINYNSGYKGYADSVKGRFTISRDNSKNTLYLQMNSLRAEDTAVYYCARGATWHDTHLDYWGQGTLVTVSS
VL: DIQMTQSPSSLSASVGDRVTITCRASQSIISYLNWYQQKPGKAPKLLIYAATSRASGVPSRFSGSGSGTDFTLTISSLQPEDFATYYCQQSYDLPLTFGGGTKVEIK
B10: 370_E09 (antibody, V domains shown)
VH: EVQLLESGGGLVQPGGSLRLSCAASGFTFDDSSMHWVRQAPGKGLEWVSNINYNGGYTGYADSVKGRFTISRDNSKNTLYLQMNSLRAEDTAVYYCAKSANWHDTALDYWGQGTLVTVSS
VL: DIQMTQSPSSLSASVGDRVTITCRASQSILSYVNWYQQKPGKAPKLVIYAATSRASGVPSRFSGSGSGTDFTLTISSLQPEDFATYYCQQSYELPLTFGGGTKVEIK
B11: 373_C02 (antibody, V domains shown)
VH: EVQLLESGGGLVQPGGSLRLSCAASGFTFDDYSMNWVRQAPGKGLEWVSGINYNSGYKGYADSVKGRFTISRDNSKNTLYLQMNSLRAEDTAVYYCARSANWHDTALDYWGQGTLVTVSS
VL: DIQMTQSPSSLSASVGDRVTITCRASQSILSYVNWYQQKPGKAPKLLIYAATSRASGVPSRFSGSGSGTDFTLTISSLQPEDFATYYCQQSYNTPLTFGGGTKVEIK
B12: 373_D10 (antibody, V domains shown)
VH: EVQLLESGGGLVQPGGSLRLSCAASGFTFDSYSMNWVRQAPGKGLEWVSNINYNSGYKGYADSVKGRFTISRDNSKNTLYLQMNSLRAEDTAVYYCARSANWHDTALDYWGQGTLVTVSS
VL: DIQMTQSPSSLSASVGDRVTITCRASQSILSYVNWYQQKPGKAPKLLIYAATSRASGVPSRFSGSGSGTDFTLTISSLQPEDFATYYCQQSYDLPLTFGGGTKVEIK
B13: 365_E02 (antibody, V domains shown)
VH: EVQLLESGGGLVQPGGSLRLSCAASGFTFSSYSMNWVRQAPGKGLEWVANINYNGGYTSYADSVKGRFTISRDNSKNTLYLQMNSLRAEDTAVYYCAKSATWHDTHLDYWGQGTLVTVSS
VL: DIQMTQSPSSLSASVGDRVTITCRASQSIISYLNWYQQKPGKAPKLLIYAATSRASGVPSRFSGSGSGTDFTLTISSLQPEDFATYYCQQSYENPLTFGGGTKVEIK
B14: 367_H11 (antibody, V domains shown)
VH: EVQLLESGGGLVQPGGSLRLSCAASGFTFSSYGMNWVRQAPGKGLEWVAGINYNGGYKGYADSVKGRFTISRDNSKNTLYLQMNSLRAEDTAVYYCARSANWHDTALDYWGQGTLVTVSS
VL: DIQMTQSPSSLSASVGDRVTITCRASQSIISYVNWYQQKPGKAPKLVIYAATSRASGVPSRFSGSGSGTDFTLTISSLQPEDFATYYCQQSYNSPLTFGGGTKVEIK
B15: 373_A10 (antibody, V domains shown)
VH: EVQLLESGGGLVQPGGSLRLSCAASGFTFSSYGMNWVRQAPGKGLEWVSGINYNSGYTSYADSVKGRFTISRDNSKNTLYLQMNSLRAEDTAVYYCARSANWHDTALDYWGQGTLVTVSS
VL: DIQMTQSPSSLSASVGDRVTITCRASQSILSYLNWYQQKPGKAPKLVIYAATSRASGVPSRFSGSGSGTDFTLTISSLQPEDFATYYCQQSYDLPLTFGGGTKVEIK
B16: 367_H06 (antibody, V domains shown)
VH: EVQLLESGGGLVQPGGSLRLSCAASGFTFSSYGMNWVRQAPGKGLEWVSNINYNGGYTGYADSVKGRFTISRDNSKNTLYLQMNSLRAEDTAVYYCARSANWHDTHLDYWGQGTLVTVSS
VL: DIQMTQSPSSLSASVGDRVTITCRASQSIITYLNWYQQKPGKAPKLLIYAATSRASGVPSRFSGSGSGTDFTLTISSLQPEDFATYYCQQSYDTPLTFGGGTKVEIK
B17: 370_D04 (antibody, V domains shown)
VH: EVQLLESGGGLVQPGGSLRLSCAASGFTFDSYSMNWVRQAPGKGLEWVANINYNSGYKGYADSVKGRFTISRDNSKNTLYLQMNSLRAEDTAVYYCARSANWHDTALDYWGQGTLVTVSS
VL: DIQMTQSPSSLSASVGDRVTITCRASQSILTYLNWYQQKPGKAPKLVIYAATSRASGVPSRFSGSGSGTDFTLTISSLQPEDFATYYCQQSYDNPLTFGGGTKVEIK
B18: 369_G01 (antibody, V domains shown)
VH: EVQLLESGGGLVQPGGSLRLSCAASGFTFSSYSMNWVRQAPGKGLEWVSNINYNSGYKSYADSVKGRFTISRDNSKNTLYLQMNSLRAEDTAVYYCARSANWHDTALDYWGQGTLVTVSS
VL: DIQMTQSPSSLSASVGDRVTITCRASQSILSYVNWYQQKPGKAPKLLIYAATSRASGVPSRFSGSGSGTDFTLTISSLQPEDFATYYCQQSYSSPLTFGGGTKVEIK
B19: 369_F01 (antibody, V domains shown)
VH: EVQLLESGGGLVQPGGSLRLSCAASGFTFSSYGMNWVRQAPGKGLEWVSGINYNGGYKSYADSVKGRFTISRDNSKNTLYLQMNSLRAEDTAVYYCARSANWHDTALDYWGQGTLVTVSS
VL: DIQMTQSPSSLSASVGDRVTITCRASQSILTYVNWYQQKPGKAPKLLIYAATSRASGVPSRFSGSGSGTDFTLTISSLQPEDFATYYCQQSYELPLTFGGGTKVEIK
B20: 374_B06 (antibody, V domains shown)
VH: EVQLLESGGGLVQPGGSLRLSCAASGFTFDSYSMNWVRQAPGKGLEWVAGINYNSGYKGYADSVKGRFTISRDNSKNTLYLQMNSLRAEDTAVYYCARSANWHDTHLDYWGQGTLVTVSS
VL: DIQMTQSPSSLSASVGDRVTITCRASQSILTYVNWYQQKPGKAPKLLIYAATSRASGVPSRFSGSGSGTDFTLTISSLQPEDFATYYCQQSYDTPLTFGGGTKVEIK
B21: 373_D04 (antibody, V domains shown)
VH: EVQLLESGGGLVQPGGSLRLSCAASGFTFDSYSMNWVRQAPGKGLEWVSGINYNSGYKGYADSVKGRFTISRDNSKNTLYLQMNSLRAEDTAVYYCARSANWHDTALDYWGQGTLVTVSS
VL: DIQMTQSPSSLSASVGDRVTITCRASQSILSYLNWYQQKPGKAPKLLIYAATSRHSGVPSRFSGSGSGTDFTLTISSLQPEDFATYYCQQSYDSPLTFGGGTKVEIK

In the test the target is ACVR2A on primary human myotubes (human, UniProt P27037 20-513). Briefly: cell-based or functional assay.
Chain of ACVR2A on primary human myotubes (P27037 20-513): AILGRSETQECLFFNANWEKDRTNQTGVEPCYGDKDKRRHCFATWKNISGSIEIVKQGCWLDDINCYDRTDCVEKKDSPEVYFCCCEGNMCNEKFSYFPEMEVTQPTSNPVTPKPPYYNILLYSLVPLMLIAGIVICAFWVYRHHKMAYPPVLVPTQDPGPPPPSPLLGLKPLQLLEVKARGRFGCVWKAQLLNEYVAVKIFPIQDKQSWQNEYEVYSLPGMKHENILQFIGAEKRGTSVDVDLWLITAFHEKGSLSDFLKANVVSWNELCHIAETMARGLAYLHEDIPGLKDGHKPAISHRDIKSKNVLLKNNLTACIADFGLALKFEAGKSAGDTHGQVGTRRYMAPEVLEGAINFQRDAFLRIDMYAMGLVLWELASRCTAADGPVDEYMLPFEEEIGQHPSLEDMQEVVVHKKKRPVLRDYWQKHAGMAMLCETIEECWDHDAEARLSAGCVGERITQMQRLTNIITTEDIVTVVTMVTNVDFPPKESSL
As to B1, the “Phospho-SMAD3 Human Skeletal Muscle GDF8” value was 0.0135.
As for B2, the “Phospho-SMAD3 Human Skeletal Muscle GDF8” value is 0.0392.
The result for B3 reads 0.0138; that for B4, 0.0029.
For B5, the “Phospho-SMAD3 Human Skeletal Muscle GDF8” value was determined as 0.0582.
In the case of B6, the “Phospho-SMAD3 Human Skeletal Muscle GDF8” value was found to be 0.023.
Next, B7: 0.23; B8: 0.903.
Next, B9: 0.0132.
On to B10, for which the “Phospho-SMAD3 Human Skeletal Muscle GDF8” value came to 0.0093.
Next, B11: 0.0083; B12: 0.006; B13: 0.341.
Regarding B14, the “Phospho-SMAD3 Human Skeletal Muscle GDF8” value is 0.0703.
Next, B15: 0.0111; B16: 0.108.
With B17, the “Phospho-SMAD3 Human Skeletal Muscle GDF8” value came out at 0.0074.
Consider B18, for which the “Phospho-SMAD3 Human Skeletal Muscle GDF8” value stood at 0.0116.
As to B19, the “Phospho-SMAD3 Human Skeletal Muscle GDF8” value was determined as 0.0317.
As for B20, the “Phospho-SMAD3 Human Skeletal Muscle GDF8” value was 0.0407.
Take B21: the “Phospho-SMAD3 Human Skeletal Muscle GDF8” value stood at 0.0078.

Values taken from US20210380703A1 (RIGEL PHARMACEUTICALS, published 2021).
